Results reported in patent publication US20250002610A1 (Genmab, published 2025).

Target: T1, human FAPα (Fibroblast activation protein alpha), cell surface expressed (human, UniProt Q12884 1-760)
T1 construct: Endogenous on human lung fibroblasts and CAFs
T1 sequence: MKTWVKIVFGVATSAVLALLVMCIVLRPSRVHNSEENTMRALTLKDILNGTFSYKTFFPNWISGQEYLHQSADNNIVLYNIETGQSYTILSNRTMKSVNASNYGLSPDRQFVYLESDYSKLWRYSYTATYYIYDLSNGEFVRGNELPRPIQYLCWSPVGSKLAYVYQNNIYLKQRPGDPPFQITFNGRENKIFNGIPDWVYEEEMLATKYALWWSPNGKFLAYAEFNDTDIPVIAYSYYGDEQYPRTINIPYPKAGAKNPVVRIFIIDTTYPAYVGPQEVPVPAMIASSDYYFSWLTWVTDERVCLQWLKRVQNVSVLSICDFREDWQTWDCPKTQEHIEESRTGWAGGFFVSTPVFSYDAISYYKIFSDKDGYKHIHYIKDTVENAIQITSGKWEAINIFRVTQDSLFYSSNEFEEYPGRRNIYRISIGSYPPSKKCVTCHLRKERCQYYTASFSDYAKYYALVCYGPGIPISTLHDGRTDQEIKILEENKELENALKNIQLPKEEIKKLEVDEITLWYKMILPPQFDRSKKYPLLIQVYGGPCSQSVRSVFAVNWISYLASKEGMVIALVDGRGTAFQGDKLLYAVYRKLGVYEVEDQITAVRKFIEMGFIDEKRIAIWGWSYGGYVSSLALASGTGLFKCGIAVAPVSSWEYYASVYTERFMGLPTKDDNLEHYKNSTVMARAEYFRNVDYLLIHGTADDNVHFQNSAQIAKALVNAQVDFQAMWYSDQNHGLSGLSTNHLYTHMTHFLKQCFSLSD
Test: flow cytometry, human lung fibroblasts, n = 1
Experimental: Human lung fibroblasts and CAFs (50,000 cells/well) were seeded in 96-Well round bottom plates (Greiner Bio-one, Cat #650101). Antibody dilutions were prepared using fluorescence-activated cell sorting (FACS) buffer, consisting of phosphate buffer saline (PBS, Lonza, Cat #BE17-517Q)+1% Bovine Serum Albumin (BSA, Roche, Cat #10735086001)+0.02% Sodium Azide (Bio-World, Cat #41920044-3). Plates were centrifuged, supernatant was removed, cells were resuspended in 50 μL of human Fc Block (BD, Cat #564220, diluted 1:100 in FACS buffer) and 50 μL of viability stain TO-PRO-3 Iodide (Thermo Fisher, Cat #T3605, diluted 1: 25,000 in FACS buffer), and incubated for 15 min at 4° C. Plates were washed three times with FACS buffer. Plates were centrifuged, supernatant was removed, cells were resuspended in 50 μL of antibody dilutions (concentration range 90-0.0005 μg/mL, three-fold dilution steps using FACS buffer) of BisG1-FAPα-FERL/DR4-FERR, BisG1-FAPα-FERL/b12-FERR, BisG1-b12-FERL/b12-FERR (top six concentrations only for CAFs culture) or IgG1-FAPα-FERL (top four concentrations only for CAFs culture) and incubated for 30 min at 4° C. Cells were washed three times with FACS buffer and resuspended in 50 μL of Fluorescein isothiocyanate (FITC)-labeled polyclonal antibody goat anti-mouse IgG1 (Jackson Immuno Research, Cat #109-096-097, diluted 1:100 in FACS buffer). After 30 min incubation at 4° C., cells were washed twice with FACS buffer and resuspended in FACS buffer. Antibody binding to viable cells (TO-PRO-3 negative) was analyzed by flow cytometry on a FACSCelesta™ (BD biosciences) and data were processed using FlowJo_v10.8.1 (FlowJo LLC). Geomean fluorescence intensity, gMFI, was determined and visualized using GraphPad Prism. Binding curves were analyzed using nonlinear regression analysis. The concentration (pg/mL) at which 50% of the maximal effect was observed (EC₅₀) was derived from the fitted curves.
Binding of FAPα-targeting monoclonal antibody clones, IgG1-FAPα-FEAL and IgG1-FAP5-FEAL, and bispecific antibodies carrying a binding arm derived from the two FAPα-binding clones (BisG1-FAPα-FEAL/b12-FEAR and BisG1-FAP5-FEAL/b12-FEAR) to human lung fibroblasts, which endogenously express FAPα, was compared and analyzed by flow cytometry.

B1: BisG1-FAPα-FEAL/b12-FEAR (bispecific antibody, human IgG1, kappa)
heavy 1: EVQLLESGGGLVQPGGSPRLSCEASGFTFSSYALSWVRQAPGKGLEWVSAISGSGGGRYYADSVKGRFTISRDNSKNTLFLQMNSLRAEDTAVYYCAKEGYSSSGTYWDHWGQGTLVTVSSASTKGPSVFPLAPSSKSTSGGTAALGCLVKDYFPEPVTVSWNSGALTSGVHTFPAVLQSSGLYSLSSVVTVPSSSLGTQTYICNVNHKPSNTKVDKRVEPKSCDKTHTCPPCPAPEFEGGPSVFLFPPKPKDTLMISRTPEVTCVVVAVSHEDPEVKFNWYVDGVEVHNAKTKPREEQYNSTYRVVSVLTVLHQDWLNGKEYKCKVSNKALPAPIEKTISKAKGQPREPQVYTLPPSREEMTKNQVSLTCLVKGFYPSDIAVEWESNGQPENNYKTTPPVLDSDGSFLLYSKLTVDKSRWQQGNVFSCSVMHEALHNHYTQKSLSLSPG
light 1: AIQMTQSPSSVSASVGDRVTITCRASQGVSSWLAWYQQKPGRAPKLLIYVASTLQSGVPSRFSGSGSGTDFTLTINSLQPEDFATYYCQQANSFPPTFGQGTRLEMKRTVAAPSVFIFPPSDEQLKSGTASVVCLLNNFYPREAKVQWKVDNALQSGNSQESVTEQDSKDSTYSLSSTLTLSKADYEKHKVYACEVTHQGLSSPVTKSFNRGEC
heavy 2: QVQLVQSGAEVKKPGASVKVSCQASGYRFSNFVIHWVRQAPGQRFEWMGWINPYNGNKEFSAKFQDRVTFTADTSANTAYMELRSLRSADTAVYYCARVGPYSWDDSPQDNYYMDVWGKGTTVIVSSASTKGPSVFPLAPSSKSTSGGTAALGCLVKDYFPEPVTVSWNSGALTSGVHTFPAVLQSSGLYSLSSVVTVPSSSLGTQTYICNVNHKPSNTKVDKRVEPKSCDKTHTCPPCPAPEFEGGPSVFLFPPKPKDTLMISRTPEVTCVVVAVSHEDPEVKFNWYVDGVEVHNAKTKPREEQYNSTYRVVSVLTVLHQDWLNGKEYKCKVSNKALPAPIEKTISKAKGQPREPQVYTLPPSREEMTKNQVSLTCLVKGFYPSDIAVEWESNGQPENNYKTTPPVLDSDGSFFLYSRLTVDKSRWQQGNVFSCSVMHEALHNHYTQKSLSLSPG
light 2: EIVLTQSPGTLSLSPGERATFSCRSSHSIRSRRVAWYQHKPGQAPRLVIHGVSNRASGISDRFSGSGSGTDFTLTITRVEPEDFALYYCQVYGASSYTFGQGTKLERKRTVAAPSVFIFPPSDEQLKSGTASVVCLLNNFYPREAKVQWKVDNALQSGNSQESVTEQDSKDSTYSLSSTLTLSKADYEKHKVYACEVTHQGLSSPVTKSFNRGEC
notes: Fab-arm exchange of IgG1-FAPα-FEAL and IgG1-b12-FEAR
- EC50: 0.048 µg/mL
